Reference: PMC10397247
Each block holds one binder with its values, some of them ahead of it.

Assays:
4H2576-bA = target: T1, 4H2576-bA; test: two-hybrid library CCNG1;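 note: natural log of median RNA to DNA barcode read ratio; higher means stronger binding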
T1 chain: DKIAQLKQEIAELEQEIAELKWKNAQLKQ

4H2610-bA = target: T2, 4H2610-bA; test: two-hybrid library CCNG1;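 note: natural log of median RNA to DNA barcode read ratio; higher means stronger binding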
T2 chain: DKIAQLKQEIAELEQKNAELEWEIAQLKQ

4H2618-bA = target: T3, 4H2618-bA; test: two-hybrid library CCNG1;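 note: natural log of median RNA to DNA barcode read ratio; higher means stronger binding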
T3 chain: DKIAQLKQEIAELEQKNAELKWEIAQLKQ

4H2667-bA = target: T4, 4H2667-bA; test: two-hybrid library CCNG1;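 note: natural log of median RNA to DNA barcode read ratio; higher means stronger binding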
T4 chain: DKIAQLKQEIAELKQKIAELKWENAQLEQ

4H2697-bA = target: T5, 4H2697-bA; test: two-hybrid library CCNG1;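 note: natural log of median RNA to DNA barcode read ratio; higher means stronger binding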
T5 chain: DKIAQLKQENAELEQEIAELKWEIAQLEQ

4H2717-bA = target: T6, 4H2717-bA; test: two-hybrid library CCNG1;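 note: natural log of median RNA to DNA barcode read ratio; higher means stronger binding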
T6 chain: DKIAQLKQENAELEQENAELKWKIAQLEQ

4H2729-bA = target: T7, 4H2729-bA; test: two-hybrid library CCNG1
T7 chain: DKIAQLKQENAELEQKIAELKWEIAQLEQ

4H2760-bN = target: T8, 4H2760-bN; test: two-hybrid library CCNG1
T8 chain: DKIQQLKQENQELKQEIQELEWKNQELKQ

4H3057-bA = target: T9, 4H3057-bA; test: two-hybrid library CCNG1
T9 chain: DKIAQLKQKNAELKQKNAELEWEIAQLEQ

4H3112-bA = target: T10, 4H3112-bA; test: two-hybrid library CCNG1
T10 chain: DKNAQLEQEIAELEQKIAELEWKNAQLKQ

4H3185-bA = target: T11, 4H3185-bA; test: two-hybrid library CCNG1
T11 chain: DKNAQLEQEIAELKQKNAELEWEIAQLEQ

4H3189-bA = target: T12, 4H3189-bA; test: two-hybrid library CCNG1
T12 chain: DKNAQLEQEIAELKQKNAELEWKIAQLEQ

4H331-bA = target: T13, 4H331-bA; test: two-hybrid library CCNG1
T13 chain: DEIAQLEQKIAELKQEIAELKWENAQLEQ

4H3354-bA = target: T14, 4H3354-bA; test: two-hybrid library CCNG1
T14 chain: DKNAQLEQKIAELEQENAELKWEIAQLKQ

4H338-bA = target: T15, 4H338-bA; test: two-hybrid library CCNG1
T15 chain: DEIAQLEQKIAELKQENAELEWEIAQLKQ

4H3427-bA = target: T16, 4H3427-bA; test: two-hybrid library CCNG1
T16 chain: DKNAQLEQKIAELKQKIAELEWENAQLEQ

4H3606-bA = target: T17, 4H3606-bA; test: two-hybrid library CCNG1
T17 chain: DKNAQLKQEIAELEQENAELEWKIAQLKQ

4H370-bA = target: T18, 4H370-bA; test: two-hybrid library CCNG1
T18 chain: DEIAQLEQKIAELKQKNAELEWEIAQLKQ

4H3782-bA = target: T19, 4H3782-bA; test: two-hybrid library CCNG1
T19 chain: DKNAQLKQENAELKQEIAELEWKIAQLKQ

4H3843-bA = target: T20, 4H3843-bA; test: two-hybrid library CCNG1
T20 chain: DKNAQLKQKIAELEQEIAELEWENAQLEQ

4H3855-bA = target: T21, 4H3855-bA; test: two-hybrid library CCNG1
T21 chain: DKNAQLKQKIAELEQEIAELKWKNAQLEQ

4H4001-bA = target: T22, 4H4001-bA; test: two-hybrid library CCNG1
T22 chain: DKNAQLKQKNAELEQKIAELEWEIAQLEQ

4H454-bA = target: T23, 4H454-bA; test: two-hybrid library CCNG1
T23 chain: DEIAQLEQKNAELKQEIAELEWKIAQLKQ

4H462-bA = target: T24, 4H462-bA; test: two-hybrid library CCNG1
T24 chain: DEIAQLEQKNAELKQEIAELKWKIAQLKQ

4H568-bA = target: T25, 4H568-bA; test: two-hybrid library CCNG1
T25 chain: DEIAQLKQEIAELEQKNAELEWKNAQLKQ

4H607-bA = target: T26, 4H607-bA; test: two-hybrid library CCNG1
T26 chain: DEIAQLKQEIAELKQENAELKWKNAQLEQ

4H687-bA = target: T27, 4H687-bA; test: two-hybrid library CCNG1
T27 chain: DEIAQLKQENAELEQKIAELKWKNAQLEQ

4H717-bA = target: T28, 4H717-bA; test: two-hybrid library CCNG1
T28 chain: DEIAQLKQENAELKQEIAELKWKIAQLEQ

4H72-bA = target: T29, 4H72-bA; test: two-hybrid library CCNG1
T29 chain: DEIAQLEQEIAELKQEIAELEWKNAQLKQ

4H754-bA = target: T30, 4H754-bA; test: two-hybrid library CCNG1
T30 chain: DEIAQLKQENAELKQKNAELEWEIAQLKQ

4H797-bA = target: T31, 4H797-bA; test: two-hybrid library CCNG1
T31 chain: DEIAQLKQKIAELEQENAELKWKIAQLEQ

4H883-bA = target: T32, 4H883-bA; test: two-hybrid library CCNG1
T32 chain: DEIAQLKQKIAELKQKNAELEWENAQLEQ

4H908-bA = target: T33, 4H908-bA; test: two-hybrid library CCNG1
T33 chain: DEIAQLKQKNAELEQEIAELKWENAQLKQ

4H918-bA = target: T34, 4H918-bA; test: two-hybrid library CCNG1
T34 chain: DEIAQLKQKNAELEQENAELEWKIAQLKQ

4H953-bA = target: T35, 4H953-bA; test: two-hybrid library CCNG1
T35 chain: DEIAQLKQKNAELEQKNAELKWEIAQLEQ

4H967-bA = target: T36, 4H967-bA; test: two-hybrid library CCNG1
T36 chain: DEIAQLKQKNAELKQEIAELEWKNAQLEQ

P4A-bA = target: T37, P4A-bA; test: two-hybrid library CCNG1
T37 chain: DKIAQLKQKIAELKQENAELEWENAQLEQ

P5A-bA = target: T38, P5A-bA; test: two-hybrid library CCNG1
T38 chain: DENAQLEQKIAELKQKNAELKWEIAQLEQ

P6A-bA = target: T39, P6A-bA; test: two-hybrid library CCNG1
T39 chain: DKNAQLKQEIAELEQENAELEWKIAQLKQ

P7A-bA = target: T40, P7A-bA; test: two-hybrid library CCNG1
T40 chain: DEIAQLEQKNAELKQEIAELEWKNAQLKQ

P8A-bA = target: T41, P8A-bA; test: two-hybrid library CCNG1
T41 chain: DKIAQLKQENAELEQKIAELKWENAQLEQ

P9A-bA = target: T42, P9A-bA; test: two-hybrid library CCNG1
T42 chain: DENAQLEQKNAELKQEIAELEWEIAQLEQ

4H2721-AA = target: T43, 4H2721-AA; test: two-hybrid library CCmax
T43 chain: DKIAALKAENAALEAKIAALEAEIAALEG

4H2750-AA = target: T44, 4H2750-AA; test: two-hybrid library CCmax; conditions: mean of both orientations
T44 chain: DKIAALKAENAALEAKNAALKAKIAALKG

4H2898-AA = target: T45, 4H2898-AA; test: two-hybrid library CCmax; conditions: mean of both orientations
T45 chain: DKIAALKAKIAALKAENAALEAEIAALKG

4H3020-AA = target: T46, 4H3020-AA; test: two-hybrid library CCmax; conditions: mean of both orientations
T46 chain: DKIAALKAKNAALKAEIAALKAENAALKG

4H3365-AA = target: T47, 4H3365-AA; test: two-hybrid library CCmax; conditions: mean of both orientations
T47 chain: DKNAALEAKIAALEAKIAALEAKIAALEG

4H355-AA = target: T48, 4H355-AA; test: two-hybrid library CCmax; conditions: mean of both orientations
T48 chain: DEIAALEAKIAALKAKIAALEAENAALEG

4H3651-AA = target: T49, 4H3651-AA; test: two-hybrid library CCmax; conditions: mean of both orientations
T49 chain: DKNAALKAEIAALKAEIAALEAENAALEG

4H3705-AA = target: T50, 4H3705-AA; test: two-hybrid library CCmax; conditions: mean of both orientations
T50 chain: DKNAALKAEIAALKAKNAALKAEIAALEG

4H3782-AA = target: T51, 4H3782-AA; test: two-hybrid library CCmax; conditions: mean of both orientations
T51 chain: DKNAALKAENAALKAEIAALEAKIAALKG

4H465-AA = target: T52, 4H465-AA; test: two-hybrid library CCmax; conditions: mean of both orientations
T52 chain: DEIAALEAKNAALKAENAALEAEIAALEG

4H486-AA = target: T53, 4H486-AA; test: two-hybrid library CCmax; conditions: mean of both orientations
T53 chain: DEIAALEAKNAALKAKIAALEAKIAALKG

4H535-AA = target: T54, 4H535-AA; test: two-hybrid library CCmax; conditions: mean of both orientations
T54 chain: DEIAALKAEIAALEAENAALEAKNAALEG

4H58-AA = target: T55, 4H58-AA; test: two-hybrid library CCmax; conditions: mean of both orientations
T55 chain: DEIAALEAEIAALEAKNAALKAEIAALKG

4H895-AA = target: T56, 4H895-AA; test: two-hybrid library CCmax; conditions: mean of both orientations
T56 chain: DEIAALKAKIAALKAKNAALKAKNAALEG

4H_APH = target: T57, 4H_APH; test: two-hybrid library CCmax; conditions: mean of both orientations
T57 chain: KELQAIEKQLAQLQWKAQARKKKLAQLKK

4H_BCR = target: T58, 4H_BCR; test: two-hybrid library CCmax; conditions: mean of both orientations
T58 chain: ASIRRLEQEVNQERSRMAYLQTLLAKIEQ

4H_GCN4 = test: two-hybrid library CCmax
Chain of 4H_GCN4 (chain, as listed by the source): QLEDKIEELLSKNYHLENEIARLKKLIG

GCN2_T = test: two-hybrid library CCmax; conditions: mean of both orientations

B1: 4H2576-bA (peptide)
chain: DKIAQLKQEIAELEQEIAELKWKNAQLKQ
- interaction score (4H2576-bA): 1.66
- interaction score (4H2610-bA): -0.116
- interaction score (4H2618-bA): -0.0165
- interaction score (4H2667-bA): 0.89
- interaction score (4H2697-bA): 0.599
- interaction score (4H2717-bA): -1.39
- interaction score (4H2729-bA): 1.22
- interaction score (4H2760-bN): 0.547
- interaction score (4H3057-bA): 1.74
- interaction score (4H3112-bA): 0.265
- interaction score (4H3185-bA): -1.6
- interaction score (4H3189-bA): -0.652
- interaction score (4H331-bA): 1.26
- interaction score (4H3354-bA): -0.69
- interaction score (4H338-bA): 0.28
- interaction score (4H3427-bA): 1.64
- interaction score (4H3606-bA): -0.614
- interaction score (4H370-bA): 1.32
- interaction score (4H3782-bA): 0.345
- interaction score (4H3843-bA): 2.1
- interaction score (4H3855-bA): 0.525
- interaction score (4H4001-bA): 1.77
- interaction score (4H454-bA): 0.611
- interaction score (4H462-bA): 0.799
- interaction score (4H568-bA): -0.232
- interaction score (4H607-bA): -0.213
- interaction score (4H687-bA): -0.678
- interaction score (4H717-bA): -1.01
- interaction score (4H72-bA): 1.49
- interaction score (4H754-bA): -0.459
- interaction score (4H797-bA): -0.381
- interaction score (4H883-bA): 0.662
- interaction score (4H908-bA): 0.163
- interaction score (4H918-bA): -0.646
- interaction score (4H953-bA): 0.283
- interaction score (4H967-bA): 1.25

B2: P4A-bA (peptide)
chain: DKIAQLKQKIAELKQENAELEWENAQLEQ
- interaction score (P4A-bA): -0.883
- interaction score (P5A-bA): -1.23
- interaction score (P6A-bA): -2.07
- interaction score (P7A-bA): -1.25
- interaction score (P8A-bA): -0.955
- interaction score (P9A-bA): -0.899

The remaining lines, values ahead:

- interaction score (4H2618-bA): 0.484
- interaction score (4H2667-bA): 0.0194
- interaction score (4H2729-bA): 1.35
- interaction score (4H3112-bA): -0.804
- interaction score (4H3185-bA): 0.858
- interaction score (4H3189-bA): -2.6
- interaction score (4H331-bA): 0.866
- interaction score (4H3354-bA): 1.21
- interaction score (4H338-bA): 1.02
- interaction score (4H3427-bA): 0.72
- interaction score (4H3782-bA): -0.735
- interaction score (4H3855-bA): -0.835
- interaction score (4H4001-bA): 0.142
- interaction score (4H454-bA): 0.854
- interaction score (4H568-bA): -0.965
- interaction score (4H607-bA): -1.07
- interaction score (4H687-bA): 0.769
- interaction score (4H717-bA): -1.08
- interaction score (4H72-bA): 0.102
- interaction score (4H754-bA): -0.396
- interaction score (4H797-bA): 0.0328
- interaction score (4H883-bA): 0.137
- interaction score (4H908-bA): -0.916
- interaction score (4H918-bA): 1.61
- interaction score (4H953-bA): -1.3
- interaction score (4H967-bA): -0.631
B3: 4H2618-bA (peptide)
chain: DKIAQLKQEIAELEQKNAELKWEIAQLKQ

- interaction score (4H2721-AA): 0.879
- interaction score (4H2750-AA): 0.408
- interaction score (4H2898-AA): 0.892
- interaction score (4H3020-AA): -1.05
- interaction score (4H3365-AA): -1.58
- interaction score (4H355-AA): -0.56
- interaction score (4H3651-AA): -1.51
- interaction score (4H3705-AA): 1.59
- interaction score (4H3782-AA): 1.73
- interaction score (4H465-AA): -0.696
- interaction score (4H486-AA): 2.11
- interaction score (4H535-AA): -1.55
- interaction score (4H58-AA): 0.0667
- interaction score (4H895-AA): -1.62
- interaction score (4H_APH): -2.01
- interaction score (4H_BCR): -1.38
- interaction score (4H_GCN4): -1.31
- interaction score (GCN2_T): -0.835
B4: 4H2721-AA (peptide)
chain: DKIAALKAENAALEAKIAALEAEIAALEG
